Test system: Escherichia coli TOP10
Experiment: shrunken log2 fold change of peptide-encoding DNA abundance (4.5 h post-induction vs induction); higher = less antimicrobial activity (less host growth inhibition)
Conditions: time post-induction: 4.5 h; library: site-saturation at positions 5, 18, 19, 20
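Also: peptides expressed intracellularly from a pBAD plasmid library in pooled LB shake-flask culture, induced with 0.3% L-arabinose, DNA abundance read by NGS, three biological replicates, DESeq2 with apeglm shrinkage.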

Sequence	shrunken log2 fold change
RRIRCRPPRLPRPRPRPRCCPRP	-0.245
RRIRMRPPRLPRPRPRPGKSPRP	0.0127
RRIRKRPPRLPRPRPRPHHVPRP	-0.348
RRIRYRPPRLPRPRPRPHRVPRP	-0.248
RRIRWRPPRLPRPRPRPGIYPRP	-0.137
RRIRPRPPRLPRPRPRPDHGPRP	-0.0198
RRIRQRPPRLPRPRPRPEATPRP	0.353
RRIRFRPPRLPRPRPRPAAPPRP	0.745
RRIRCRPPRLPRPRPRPMIAPRP	0.111
RRIRFRPPRLPRPRPRPRQNPRP	0.353
RRIRYRPPRLPRPRPRPVLMPRP	-0.83
RRIRQRPPRLPRPRPRPHKNPRP	-0.194
RRIRSRPPRLPRPRPRPFMDPRP	-0.519
RRIRDRPPRLPRPRPRPMFQPRP	-0.0111
RRIRWRPPRLPRPRPRPAWTPRP	0.428
RRIRGRPPRLPRPRPRPWYYPRP	-0.148
RRIRLRPPRLPRPRPRPIDPPRP	-0.379
RRIRKRPPRLPRPRPRPKHCPRP	-0.222
RRIRHRPPRLPRPRPRPDIQPRP	-0.0379
RRIRVRPPRLPRPRPRPSNVPRP	-0.139
RRIRARPPRLPRPRPRPIELPRP	0.00186
RRIRERPPRLPRPRPRPSIEPRP	-0.37
RRIRMRPPRLPRPRPRPMVGPRP	-0.06
RRIRQRPPRLPRPRPRPQEQPRP	-0.000777
RRIRIRPPRLPRPRPRPIAMPRP	-0.216

Sequence	shrunken log2 fold change
RRIRDRPPRLPRPRPRPKVHPRP	-0.216
RRIRPRPPRLPRPRPRPNMPPRP	-0.405
RRIRGRPPRLPRPRPRPLDQPRP	1.01
RRIRARPPRLPRPRPRPCVTPRP	0.176
RRIRWRPPRLPRPRPRPCELPRP	0.0544
RRIRTRPPRLPRPRPRPIMVPRP	-0.198
RRIRARPPRLPRPRPRPSHRPRP	0.0188
RRIRVRPPRLPRPRPRPTKSPRP	-0.00156
RRIRHRPPRLPRPRPRPKNNPRP	-0.74
RRIRRRPPRLPRPRPRPFKEPRP	0.00168
RRIRIRPPRLPRPRPRPYSRPRP	-0.0136
RRIRMRPPRLPRPRPRPSGLPRP	0.0901
RRIRERPPRLPRPRPRPHAGPRP	0.0727
RRIRNRPPRLPRPRPRPGADPRP	0.0958
RRIRCRPPRLPRPRPRPSEEPRP	-0.0443
RRIRQRPPRLPRPRPRPLPCPRP	-0.00831
RRIRARPPRLPRPRPRPMFCPRP	0.211
RRIRGRPPRLPRPRPRPMHSPRP	0.668
RRIRYRPPRLPRPRPRPETDPRP	-0.021
RRIRYRPPRLPRPRPRPMVTPRP	0.0309
RRIRLRPPRLPRPRPRPDKFPRP	-0.26
RRIRCRPPRLPRPRPRPYKTPRP	-0.404
RRIRVRPPRLPRPRPRPPMSPRP	-0.249
RRIRNRPPRLPRPRPRPGSMPRP	-0.225
RRIRWRPPRLPRPRPRPTADPRP	1.51

Sequence	shrunken log2 fold change
RRIRKRPPRLPRPRPRPGFCPRP	0.243
RRIRERPPRLPRPRPRPFHKPRP	-0.355
RRIRGRPPRLPRPRPRPMARPRP	0.318
RRIRARPPRLPRPRPRPALVPRP	0.597
RRIRTRPPRLPRPRPRPGFGPRP	0.263
RRIRFRPPRLPRPRPRPKFGPRP	0.039
RRIRCRPPRLPRPRPRPMTDPRP	-0.0858
RRIRGRPPRLPRPRPRPQSLPRP	0.251
RRIRTRPPRLPRPRPRPPYQPRP	0.0802
RRIRHRPPRLPRPRPRPKYMPRP	-0.746
RRIRKRPPRLPRPRPRPHDPPRP	0.282
RRIRVRPPRLPRPRPRPAPRPRP	0.634
RRIRDRPPRLPRPRPRPWLWPRP	0.0548
RRIRFRPPRLPRPRPRPNGSPRP	0.0396
RRIRRRPPRLPRPRPRPAVGPRP	0.344
RRIRNRPPRLPRPRPRPRPVPRP	0.303
RRIRCRPPRLPRPRPRPGAHPRP	0.0157
RRIRWRPPRLPRPRPRPNYAPRP	-0.0925
RRIRMRPPRLPRPRPRPPMSPRP	-0.114
RRIRARPPRLPRPRPRPHMYPRP	-0.149
RRIRRRPPRLPRPRPRPSSAPRP	0.421
RRIRDRPPRLPRPRPRPTHKPRP	-0.0994
RRIRNRPPRLPRPRPRPMVYPRP	0.0157
RRIRCRPPRLPRPRPRPKKCPRP	-0.186
RRIRNRPPRLPRPRPRPHHEPRP	-0.534

Sequence	shrunken log2 fold change
RRIRNRPPRLPRPRPRPKIMPRP	0.0385
RRIRSRPPRLPRPRPRPVRHPRP	-0.0103
RRIRRRPPRLPRPRPRPMPHPRP	-0.124
RRIRDRPPRLPRPRPRPHWPPRP	0.197
RRIRERPPRLPRPRPRPFPCPRP	-0.0816
RRIRFRPPRLPRPRPRPCTKPRP	-0.229
RRIRYRPPRLPRPRPRPSEMPRP	-0.765
RRIRGRPPRLPRPRPRPGNWPRP	0.541
RRIRIRPPRLPRPRPRPEFQPRP	-0.129
RRIRRRPPRLPRPRPRPAYIPRP	-0.201
RRIRVRPPRLPRPRPRPAVKPRP	0.318
RRIRSRPPRLPRPRPRPNLEPRP	-0.144
RRIRYRPPRLPRPRPRPWRWPRP	-0.036
RRIRHRPPRLPRPRPRPLCYPRP	-0.737
RRIRMRPPRLPRPRPRPFDGPRP	0.136
RRIRKRPPRLPRPRPRPCCAPRP	1.3
RRIRFRPPRLPRPRPRPTGFPRP	0.0467
RRIRMRPPRLPRPRPRPLQGPRP	0.126
RRIRARPPRLPRPRPRPCFFPRP	0.145
RRIRSRPPRLPRPRPRPMNKPRP	-0.6
RRIRSRPPRLPRPRPRPYRQPRP	-0.402
RRIRYRPPRLPRPRPRPLLRPRP	-0.468
RRIRARPPRLPRPRPRPVLEPRP	0.488
RRIRERPPRLPRPRPRPQTEPRP	-0.0317
RRIRWRPPRLPRPRPRPPARPRP	0.726

Sequence	shrunken log2 fold change
RRIRIRPPRLPRPRPRPKHPPRP	-0.0675
RRIRFRPPRLPRPRPRPKHTPRP	-0.0698
RRIRVRPPRLPRPRPRPVSQPRP	0.051
RRIRHRPPRLPRPRPRPIAKPRP	0.05
RRIRVRPPRLPRPRPRPCILPRP	-0.208
RRIRQRPPRLPRPRPRPPTWPRP	-0.0557
RRIRKRPPRLPRPRPRPYEGPRP	-0.0017
RRIRHRPPRLPRPRPRPSHGPRP	-0.137
RRIRARPPRLPRPRPRPHNQPRP	-0.00392
RRIRLRPPRLPRPRPRPTPFPRP	0.253
RRIRLRPPRLPRPRPRPVQSPRP	-0.031
RRIRNRPPRLPRPRPRPMFFPRP	-0.189
RRIRGRPPRLPRPRPRPSARPRP	1.1
RRIRDRPPRLPRPRPRPYVDPRP	-0.0902
RRIRTRPPRLPRPRPRPREHPRP	0.327
RRIRERPPRLPRPRPRPKPGPRP	0.469
RRIRDRPPRLPRPRPRPVGCPRP	0.229
RRIRRRPPRLPRPRPRPCNWPRP	-0.0134
RRIRVRPPRLPRPRPRPNYNPRP	-0.76
RRIRKRPPRLPRPRPRPLPIPRP	0.143
RRIRHRPPRLPRPRPRPTPVPRP	0.137
RRIRYRPPRLPRPRPRPRYGPRP	-0.678
RRIRWRPPRLPRPRPRPGLCPRP	0.412
RRIRARPPRLPRPRPRPDHHPRP	-0.201
RRIRRRPPRLPRPRPRPLVFPRP	-0.0441

Sequence	shrunken log2 fold change
RRIRTRPPRLPRPRPRPVQRPRP	0.132
RRIRTRPPRLPRPRPRPWKPPRP	0.0143
RRIRVRPPRLPRPRPRPPKPPRP	0.107
RRIRQRPPRLPRPRPRPMCWPRP	-0.00818
RRIRFRPPRLPRPRPRPRENPRP	0.449
RRIRNRPPRLPRPRPRPVHPPRP	-0.0892
RRIRNRPPRLPRPRPRPHVCPRP	-0.00663
RRIRTRPPRLPRPRPRPRKMPRP	-0.107
RRIRQRPPRLPRPRPRPCHPPRP	-0.032
RRIRMRPPRLPRPRPRPIFHPRP	-0.00123
RRIRARPPRLPRPRPRPCSYPRP	-0.0595
RRIRPRPPRLPRPRPRPEIDPRP	-0.0829
RRIRIRPPRLPRPRPRPNTSPRP	-0.639
RRIRWRPPRLPRPRPRPWATPRP	0.168
RRIRWRPPRLPRPRPRPRAYPRP	0.224
RRIRGRPPRLPRPRPRPYVLPRP	-0.114
RRIRYRPPRLPRPRPRPWCVPRP	-0.55
RRIRNRPPRLPRPRPRPINFPRP	-0.27
RRIRTRPPRLPRPRPRPRCLPRP	-0.0645
RRIRNRPPRLPRPRPRPYGAPRP	-0.397
RRIRWRPPRLPRPRPRPCTPPRP	-0.0412
RRIRHRPPRLPRPRPRPTGNPRP	-0.215
RRIRKRPPRLPRPRPRPFAQPRP	0.177
RRIRSRPPRLPRPRPRPDQGPRP	-0.196
RRIRIRPPRLPRPRPRPYTHPRP	-1.09

Reference: the supplement of paper PMC9112550, “Optimization of the antimicrobial peptide Bac7 by deep mutational scanning” (BMC Biology, 2022)
